{"source": "patent US9907853B2", "about": "“Approach to treatment of hyperglycemia using a nanoparticle encapsulated peptide” (University of Rochester, priority 2016, dated 2018)", "key": {"[1]": {"molecular_target": "T1, IRK (insulin receptor β-subunit) (Homo sapiens, UniProt P06213)", "T1 construct": "Insulin receptor β-subunit (IRK); purchased Enzo Life Sciences (Farmingdale, N.Y.)", "experiment": "IRK kinase activity in vitro towards IRS peptide substrate", "format": "biochemical", "conditions": "20 μM peptide", "procedure": "(§1) FIG. 4A depicts P2 stimulate IRK autophosphorylation in vitro. IRK was incubated in vitro with 20 μM of peptide P2 (KYCCSRK (SEQ ID NO: 2)), peptide a (KKRILHC (SEQ ID NO: 5)) or peptide b (KRNRYLSF (SEQ ID NO: 6)) and [^32P]-ATP. The [^32P] incorporation was quantified. FIG. 4B depicts P2 stimulate IRK kinase activity in vitro; identification of IRK inhibitory peptide. A similar assay was performed as in FIG. 4A, except that the IRK peptide substrate was included. FIG. 4C depicts P2 is both a substrate and activator of IRK kinase activity in vitro. Assays using sequence variant (P2Y-F; KFCCSRK (SEQ ID NO: 9)) of P2 were performed as in FIG. 4B. FIG. 4D depicts P2 stimulates IRK kinase activity in the cell; peptide “a” is an inhibitor. […] The activity as measured in four livers of P2 injected and four control mice is shown.\n(§2) Purified IRK was assayed as previously (Lerner-Marmarosh et al., 2005, PNAS 102:7109-14), using 300 μM IRS-1 Y608 peptide substrate. IRK autophosphorylation was determined as described earlier (Gibbs et al., 2012, J Biol Chem 287:1066-79). hBVR-based peptides (20 μM) were added as activators or inhibitors. […] Incorporation of ^32P was determined by liquid scintillation counting. […] Immunoprecipitates bound to protein A/G-agarose were washed in lysis buffer, followed by IRK assay buffer, and kinase activity was measured as before (Lerner-Marmarosh et al., 2005, PNAS 102:7109-14). […]"}, "[2]": {"molecular_target": "T1, IRK (insulin receptor β-subunit)", "experiment": "IRK autophosphorylation in vitro ([32P]-ATP)", "format": "biochemical", "conditions": "20 μM peptide", "procedure": "as §1, §2"}, "Akt1": {"tested_on": "Akt1", "experiment": "Akt kinase activity immunoprecipitated from HEK cells, Crosstide substrate", "format": "cell-based", "conditions": "genistein 50 μM added 30 minutes prior to peptide or insulin", "description": "Cells were serum starved overnight, and treated with myristoylated peptides and insulin as in FIG. 5A. Genistein (50 μM) was added to cells 30 minutes prior to treatment with peptide or insulin. Akt1 was immunoprecipitated from the lysates and kinase activity was measured using Crosstide as substrate.\nThus, Akt kinase activity was measured in cells loaded with either P2 or the scrambled P2 peptide, P2sc. Cell lysates were immunoprecipitated with anti-Akt antibody and immunoprecipitates were examined for phosphorylation of crosstide, an Akt specific substrate."}, "HepG2 cells": {"tested_on": "HepG2 cells", "experiment": "3H-deoxyglucose uptake in HepG2 cells", "format": "cell-based", "conditions": "starved overnight, 1 h treatment", "procedure": "FIG. 2A depicts Nanoparticle delivery of peptide P2 to human skeletal muscle (HSKM) cells stimulates glucose uptake. HSKM cells were grown in low glucose, low FBS medium overnight, then media was replaced with PBS containing 1% BSA for 1 h. Cells were pretreated for 2 hours with 20 μM myristoylated P2 or with 10 or 20 μM P2-nanoparticles, followed by measuring 3H-deoxyglucose uptake over a 15 minutes interval. Insulin, when used, was added at the same time as 3H-deoxyglucose. * P<0.05, ** P<0.01. FIG. 2B depicts a time course of glucose uptake stimulation by P2. HSKM cells were starved overnight as in described in FIG. 2A. Medium was changed to glucose-free DMEM with 1% BSA for 1 hour prior to treatment with 20 μM myr-P2 or with P2-nanoparticles for the indicated times. Glucose uptake was measured as in A. FIG. 2C depicts P2-nanoparticles affect glucose uptake in HepG2 cells. HepG2 cells were starved in low glucose DMEM with 0.1% FBS overnight. Treatment with peptide nanoparticles was for 1 h. Glucose uptake was measured as described in FIG. 2A.\nGlucose uptake was assessed using 2-deoxy 1-[^3H] glucose as described previously (Lerner-Marmarosh et al., 2005, PNAS 102:7109-14), with modification. […] Radioactivity was measured and normalized to protein concentration. […]"}, "GSK3β": {"tested_on": "GSK3β", "experiment": "GSK3β phosphorylation in HEK cells (Western blot)", "format": "cell-based", "conditions": "40 μM myristoylated peptide 15 minutes or insulin 100 nM", "procedure": "FIG. 6A depicts Phosphorylation of GSK3α in P2-stimulated cells. Lysates of cells treated as in FIG. 5A were analyzed by Western blot; the blot was probed sequentially with antibodies to phospho-GSK3α-S21 and GSK3α. The signals were quantified by densitometry. FIG. 6B depicts Phosphorylation of GSK3β in P2-stimulated cells. Identical samples to those in FIG. 6A were probed with anti-phospho-GSK3β-S9 antibody, followed by anti-GSK3β. […] Cells were harvested, lysed in buffer with triton ×100, and whole cell lysates were analyzed for phosphorylated Akt (T^308, S^473) or GSK3 (α-S^21, β-S^9) species by Western blotting. Each blot was stripped and probed with anti-Akt1 or anti GSK3α or GSK3β antibody, as appropriate, to control for loading."}, "[3]": {"tested_on": "human skeletal muscle (HSKM) cells", "experiment": "3H-deoxyglucose uptake in human skeletal muscle cells", "format": "cell-based", "conditions": "2 hours treatment, 20 μM peptide (insulin added with 3H-deoxyglucose)", "procedure": "Insulin, when used, was added at the same time as 3H-deoxyglucose. * P<0.05, ** P<0.01. […] HSKM cells were starved overnight as in described in FIG. 2A. […] Glucose uptake was measured as in A. […] Treatment with peptide nanoparticles was for 1 h. Glucose uptake was measured as described in FIG. 2A. Cultures of HEK293 were maintained in DMEM with 10% FBS. Cells were starved overnight in medium with 0.1% FBS. When used, insulin was added to serum-starved cultures at 100 nM. Human skeletal muscle cells were maintained in 1:1 DMEM:F12 medium containing 15% FBS. […] Cells were washed 3 times with cold PBS and solubilized in 150 μl 50 mM NaOH. Radioactivity was measured and normalized to protein concentration. Assessments were made in triplicate and experiments were repeated three times."}, "GSK3α": {"tested_on": "GSK3α", "experiment": "GSK3α phosphorylation in HEK cells (Western blot)", "format": "cell-based", "conditions": "40 μM myristoylated peptide 15 minutes or insulin 100 nM", "procedure": "FIG. 6A depicts Phosphorylation of GSK3α in P2-stimulated cells. Lysates of cells treated as in FIG. 5A were analyzed by Western blot; the blot was probed sequentially with antibodies to phospho-GSK3α-S21 and GSK3α. The signals were quantified by densitometry. FIG. 6B depicts Phosphorylation of GSK3β in P2-stimulated cells. Identical samples to those in FIG. 6A were probed with anti-phospho-GSK3β-S9 antibody, followed by anti-GSK3β.\nHEK cells were incubated in low glucose DMEM with 0.1% FBS, overnight. Cells were treated with 40 μM myristoylated peptide for a total of 15 min; insulin or IGF-1, if used, were included for the final 10 minutes. Cells were harvested, lysed in buffer with triton ×100, and whole cell lysates were analyzed for phosphorylated Akt (T^308, S^473) or GSK3 (α-S^21, β-S^9) species by Western blotting. Each blot was stripped and probed with anti-Akt1 or anti GSK3α or GSK3β antibody, as appropriate, to control for loading."}, "IRK [4]": {"molecular_target": "T2, IRK (Homo sapiens, UniProt P06213)", "experiment": "IRK kinase activity immunoprecipitated from peptide-treated HEK cells", "format": "cell-based", "parameters": "IRK was immunoprecipitated from cell lysates and assayed using the IRS peptide as substrate; endogenous in cells; host or cells: HEK293", "conditions": "40 μM myristoylated peptide, 15 minutes", "procedure": "as §1, §2"}, "IRK [5]": {"molecular_target": "T2, IRK", "conditions": "cited from earlier work"}}, "note": "Residues, ends and D or L forms follow the SMILES beside them. No end group written: not given here. *: point of attachment. Myristoyl = CCCCCCCCCCCCCC(=O)*", "data": [{"compound": "KFCCSRK (SEQ ID NO: 9) [P2Y-F]", "values": [{"measurement": "effect on IRK kinase activity / substrate phosphorylation", "setting": "[1]", "value": "significant decrease in substrate phosphorylation"}]}, {"compound": "myr-KRNRYLSF (SEQ ID NO: 6) (Myristoyl-KRNRYLSF) [peptide (b), BVR based peptide]", "values": [{"measurement": "IRK autophosphorylation ([32P] incorporation)", "setting": "[2]", "value": "did not lead to increased [^32P] incorporation"}]}, {"compound": "O=c1c(-c2ccc(O)cc2)coc2cc(O)cc(O)c12", "note": "[genistein]", "values": [{"measurement": "Akt activation by either insulin or P2", "setting": "Akt1", "value": "prevented Akt activation"}]}, {"compound": "insulin", "values": [{"measurement": "glucose uptake", "setting": "HepG2 cells", "value": "more robust response"}, {"measurement": "phosphorylation of GSK3β at S9", "setting": "GSK3β", "value": "enhanced phosphorylation"}, {"measurement": "glucose uptake", "setting": "[3]", "value": "stimulated glucose uptake to about the same extent"}, {"measurement": "phosphorylation of GSK3α at S21", "setting": "GSK3α", "value": "enhanced phosphorylation"}]}, {"compound": "myr-KKRILHC (SEQ ID NO: 5) (Myristoyl-KKRILHC) [peptide (a), BVR based peptide]", "values": [{"measurement": "IRK autophosphorylation ([32P] incorporation)", "setting": "[2]", "value": "did not lead to increased [^32P] incorporation"}, {"measurement": "effect on IRK kinase activity in the cell", "setting": "IRK [4]", "value": "potent inhibitor of the kinase"}]}, {"compound": "CCCCCCCCCCCCCC(=O)N[C@@H](CCCCN)C(=O)N[C@@H](Cc1ccc(O)cc1)C(=O)N[C@@H](CS)C(=O)N[C@@H](CS)C(=O)N[C@@H](CO)C(=O)N[C@@H](CCCNC(=N)N)C(=O)N[C@@H](CCCCN)C(=O)O", "note": "[P2, myr-KYCCSRK (SEQ ID NO: 2)] (Myristoyl-KYCCSRK-OH; N-terminus and C-terminus assumed)", "values": [{"measurement": "Km of the kinase", "setting": "IRK [5]", "value": "without changing Km"}]}]}
